1 substance from article PMC12149301 can be followed below.

The assay concerns the target CDTb D623A + D734A Ca^2+-binding double mutant, active form (Clostridioides difficile). The assay can be described thus: cryo-EM structure.

“CDTb D623A + D734A Ca^2+-binding double mutant, active form (natural protein)”: the stoichiometry N amounted to 7.
